Measurements reported in the DeepSol protein solubility set.

Assay: soluble on expression in E. coli; label from the status in PepcDB or PDB records

Sequence	soluble on expression in E. coli
MGSDKIHHHHHHMMFQEQIDLLQQKGLYRSLKSVGYIDRQYIEVENKRCTNYTSNDYLGLGQIAFDKDDFERFMRKYSYHLSSSRLISGSSTAYEEIETMLAGWLGYSACTILNSGYDANLALFNIFKNTNCVVFSDQENHASIIDGIKLSGLEKVIYKHLDIADLEKRLEKYPNQNIPKIIISDSVFSTNGDVVDIGQLVSLKHKYNATLILDVSHSFGIENYSNYQGVDILTSSLSKACGAYGGVILSSNDVKDMLINHGRPLIYSSSLPIYNLYFIKRNIEKLINADDRRTKLNSLSKYFNQKLKALNVNYNSSNSPIKFIEFDDIEAAENIHQTLLKHHVFTSYLRYPTVTKPMLRISLSYFHTEQDIDRLFEILHQED	not soluble
MILLSVHDSFLLDHNLPSACDKVFERLLDVTNSSFGFIATLQEDEDGQSLYLPAISNLAWDEETLTWYRHQRRTHGGLRLRKLDNLFGHVVTHNTVVCTNSLLRQKAGRDLPPIHPALHSLLGIPITHNGKTVGMIALANRREGYDQTMIELEHHHHHH	not soluble
MGSDKIHHHHHHMGEMVELKKELLRDVDLAERLLGRERPVKSEIEIRGKITRSTIEEISRIKKEPEWMKRLRLRSLELFYKLPTPKWLVGIDVIDLDEMIVYSKPETERASSWEELPKEIREFYERLGLPEIEARFLSGLSAVFDSETVYARVKKYLEEKGVIVMPIEEAVQKYPDLVKRYFMRVFPPSDHKFAALHGALWSGGTFIYVPRGVKIREPIESFFLIGKSGEGQFEHSLIVADEGAYVEWIEGCSAPRLTKFSFHDGMVEAYAHRNATIKIITVQNWSKDVINLNNKRAIAEEGARVDWVEGSIGSKMTFVYPSTILKGDNSSSRSAVVTIAKGPYLKDSGSKMIHVGRNTRSQVINKTISADGGINVYRGIIRIVKGARNAVANVECESLILDDKSKAHTYPHNQVDEPTASVNHEATTGRLTEPQLFYLTSRGLTEEEAKSLIVLGFLEDVLKELPFEYANVLTKVVRLEFSEYGAFG	not soluble
MGSDKIHHHHHHMRYNRTETLLQLALELSASHSGLSLTDIEQMFGVGRRTAQRMRDAIERVFPQLEEVPQPDRTKRWRLPNRVLGRVSDLNIDDIMAMETAAEILERDNRPDAAASVRRAGAKVRASLRPDDARRIEPDLEALMQAEGIAMRPGPRPKVRPELVETLRHAIMGCREIRVQYRRRYSTNEHSRVVQPYGLLYGQRHYLLAFVPEENEVRSYSFPNIIGVEETGNSFVRDPAFSLTEYAARSFGLYQEEPYEVMWRFSPDAATDAKEFLFHPSQTHESQPDGSLIVRFKAGGLLEMAWHLYQWGDAVEVLEPEKLRAIHERSKVSWVARP	not soluble
MRMLRRLRRATVAAAVWLATVCLVASCANADPLGSATGSVKSIVVGSGDFPESQVIAEIYAQVLQANGFDVGRRLGIGSRETYILALKDHSIDLVPEYIGNLLLYFQPDATVTMLDAVELELYKRLPGDLSILTPSPASDTDTVTVTAATAARWNLKTIADLAPHSADVKFAAPSAFQTRPSGLPGLRHKYSLDIAPGNFVTINDGGGAVTVRALVEGTATAANLFSTSAAIPQNHLVVLEDPEHNFLAGNIVPLVNSRKKSDHLKDVLDAVSAKLTTAGLAELNAAVSGNSGVDPDQAARKWVRDNGFDHPVRQ	soluble
GMGDSAGLPPIYADKPIELAPAKIITSFPVNTFLENLASAPDGTIFVTNHEVGEIVSITPDGNQQIHATVEGKVSGLAFTSNGDLVATGWNADSIPVVSLVKSDGTVETLLTLPDAIFLNGITPLSDTQYLTADSYRGAIWLIDVVQPSGSIWLEHPMLARSNSESVFPAANGLKRFGNFLYVSNTEKMLLLRIPVDSTDKPGEPEIFVEQTNIDDFAFDVEGNLYGATHIYNSVVRIAPDRSTTIIAQAEQGVIGSTAVAFGQTEGDCTAIYVVTNGGMFLPPPTGVVPANVVRLEVGKPGYPLG	soluble
MTVERIAEQPLDSELGHFNLITYRDSVEGDVHLALTLGKVCAEEPTLVRVHNMDPLRDLLQVNQPGRWSLRAAMTKVAEAGSGVVLLLGHQIGGDDLLAHVREIASAPAPAPKATTTYSTVGAGSQILRDLGVRKMRLLSAPMRFNAISGFDLEVVEYLPA	soluble
MSLGGDQAAGAVLPVTIFTARKFITMERGAPEATAVAVAGKRIVAAGSLAEVKTAVGSRPFTLDETFASKIVMPGLIDQHLHPVLGALTLAVEVIAPEDWVLPGGTHKAAGSADAYQARLKAADAKLDKPDAWLLTWGYHALWHGKLDRAALDAINPTRPIAVWHRSCHEFYLNTPALAALGISEAMTQNQGQASEQSNWREGHFWEGGLNLMMTPMLKVLATPERLAFGLKQMVSYLHANGVTAYMEPGALYTPDMWKLYEQILGAPETPMYATFIADGRGIVDRVGLDGALDAVEQQIAVAPEAPGRKLMFFPGQIKLFADGAIISQLMQMKDGYLDGHQGEWIIPPDELERRARLFWNAGYQIHTHVNGDLGLEKLLDILEKLNAEHPRPDHRSVIVHFANSTEDQVARIKRLGALVSANPYYTTGFADKYSAVGLGPERADAMVRAKSVLDQGVPLSYHSDLPMAPSAPLYLAWCGVNRLTPSGRVAGPEQRVSVDAALRAITIEAAYSWRHEDQLGSIAPGKIANFTVLEQDPYAVPPEQLKDVPIWGTVFEGRVFPVGREGHHHHHH	soluble
MGSDKIHHHHHHNEDDIFDESSAQRAIASVNECQEILKGAANGWLLEYYTGEDGEYGGFNVLARFDGNNVIMAADFATDNYEIGEESTSLYKVESYQGTELSFDSYNELIHEFCEPSGYNSPGYAGDYEFVFRSVSKEKIVLTGKKHGVTLIMTPLPAETNWQEKLTNIANVVSQASYVTYKLIVNGQEITKMGQEEHAFSVTKVDETGETTVSLYPFIYTEEGIKMYEPLVVNGVEINNFKWDNENLTYICTDTGVDAKIEFYCPEGYLNYLGNYILQLANGQRIQLELKQKMIGKSFAMNFALSGTPIEFVYNYNMTTDCIDVPSQTVGVYQGYNVLLYPGIPGGNFYADDSAVFQGRIANTDPLTIKFTYVNNPICTLMLLVYQKTDGWYGFSTMFQDVTLIKVD	not soluble
MGSDKIHHHHHHMKFPGQRKSKHYFPVKNRDPLLAQLTLQPQHISTHISGIDQTLVDIEAKVGDDLLSRYALPKGNSTLIDDEKAHQLYTELKSSELISDEFAGGTIGNTVHNYSILADDRSVLFGVMSNHIEVGSYAYRYLCNTSSKVDLNFLQPVDGPIGRCFTLISECGERTFAISKGSMDKLTPEYIDQEIVQTSSALVLTAYLMRASGGDKITDAALKAIEYAKAADVPVVLTLGTRFLIEEDPQWWIDFIKENVTILAMNEDEGEALTGFKDPLSASNAALEWCDMVLTTAGPLGLYTAGYTEDSEKRETSHTLLPGAIPEFNRYEFSRPKLKRDCQTPIKVFAHISPYMGGPEIIRNTNGAGDGALAALLHDLASNTYHKANVPGSSKHKRDGLCYSSFSQICKYANRVAYEVLAQHSPRLSRGLPEREDSLEEAYWER	not soluble
PSFSFGGITPVSLQRSSMELISVQAVKHPKLLLYLSERGLQPSDASPFLSEVYYKVSRKCFFALGFPNDAGGWELRNPYFKGCFAPKAITTIKGTDSHKLLLFEGFMDFLSWRKLHPEGQAESIILNSLTLLPKLMPTLHPYPMIESLLDNDEAGDRATKQLIDAGLPVKDMRACYAPYKDINEYLTLAEQRKKILTPHKRGLRR	not soluble
MGSDKIHHHHHHMEKEFRILNIVSAKIWGGGEQYVYDVSKALGLRGCTMFTAVNKNDELMRRRFSEVSSVFTTRLHTFNGLFSLYALTRFIRENHISHLMIHTGKIAALSVLLKKLTGVRLIFVKHNVVANKTDFYHRLIQKNTDRFICVSRLVYDVQTADNPFKEKYRIVHNGIDTGRFPPSQEKPDSRFFTVAYAGRISPEKGLENLIEACVILHRKYPQIRLKLAGHGHPDYMCRLKRGVSASGAEPFVSFEGFTEKLASFYRQSDVVVLPSLVPEAFGLSLCEAMYCRTAVISNTLGAQKEIIEHHQSGILLDRLTPESLADEIERLVLNPEAKNALATAGHQCVAARFTINHTADKLLDAI	not soluble
PTTRGYGETRGIVKENGLHTVCEEAGCPNIGECWDKKHATFMIMGDTCTRACAFCNVKTGMPGALDANEPAYVAEATRKLGLQHLVITSVDRDDLADGGAAHFAATIRAVREACPTTTIEILTPDFLRKDGALEVVVAAKPDVFNHNLETVPSRYLSVRPGARYFHSIRLLQRVKELDPSIFTKSGIMVGLGEERHEVLQVMDDLRSAEVDFLTIGQYLQPTRKHHAVMRYVTPDEFAGYQTTAYAKGFLMVSASPMTRSSHHAGDDFAKLKAA	not soluble
MGHHHHHHSHMLKKAKMAKDRKSRKKPVEVKKGKDPNAPKRPMSAYMLWLNASREKIKSDHPGISITDLSKKAGEIWKGMSKEKKEEWDRKAEDARRDYEKAMKEYEGGRG	soluble
